The values that follow come from patent publication US20170158755A1 (PROTHENA BIOSCIENCES, published 2017).

For experiment [1], the target named is T1, human His-laminin-α4 (human, UniProt Q16363 833-1823, limits assumed).
T1 construct: Bought His-tagged recombinant protein (R & D Systems); also called Human LAMA4; human His-laminin-α4 (R & D Systems)
T1 sequence: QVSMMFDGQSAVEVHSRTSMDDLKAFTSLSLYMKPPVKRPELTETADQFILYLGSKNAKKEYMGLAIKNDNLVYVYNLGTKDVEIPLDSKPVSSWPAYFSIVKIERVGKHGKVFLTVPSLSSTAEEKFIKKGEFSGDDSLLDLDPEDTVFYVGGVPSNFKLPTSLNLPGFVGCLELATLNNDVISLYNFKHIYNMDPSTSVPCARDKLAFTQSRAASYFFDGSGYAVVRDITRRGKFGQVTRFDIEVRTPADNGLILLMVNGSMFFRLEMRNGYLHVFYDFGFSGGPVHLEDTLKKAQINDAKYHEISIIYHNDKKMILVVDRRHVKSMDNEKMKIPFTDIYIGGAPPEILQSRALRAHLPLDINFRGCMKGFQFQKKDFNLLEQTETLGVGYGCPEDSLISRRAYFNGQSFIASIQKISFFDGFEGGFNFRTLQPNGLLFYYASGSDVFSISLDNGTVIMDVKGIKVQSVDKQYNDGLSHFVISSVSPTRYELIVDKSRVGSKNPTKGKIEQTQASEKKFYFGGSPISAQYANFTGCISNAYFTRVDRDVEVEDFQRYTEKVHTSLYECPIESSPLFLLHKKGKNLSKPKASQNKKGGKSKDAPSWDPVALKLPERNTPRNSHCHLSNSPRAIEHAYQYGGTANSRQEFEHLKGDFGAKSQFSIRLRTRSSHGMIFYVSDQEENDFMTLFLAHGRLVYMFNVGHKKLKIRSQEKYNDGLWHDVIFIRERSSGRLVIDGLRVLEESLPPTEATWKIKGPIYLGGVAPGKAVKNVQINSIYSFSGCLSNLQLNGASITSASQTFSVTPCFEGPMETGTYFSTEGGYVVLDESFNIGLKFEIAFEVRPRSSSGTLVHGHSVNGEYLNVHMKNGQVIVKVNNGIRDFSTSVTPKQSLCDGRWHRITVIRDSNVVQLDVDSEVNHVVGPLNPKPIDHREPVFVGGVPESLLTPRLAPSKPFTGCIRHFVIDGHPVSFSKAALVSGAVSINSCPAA
The experiment in a line: Biacore SPR.

Experiment [2] deals with T2, mouse His-laminin-α4 (mouse, UniProt P97927 826-1816, limits assumed).
T2 construct: Bought His-tagged recombinant protein; also called Murine LAMA4; recombinant mouse LAMA4-His
T2 sequence (looked up): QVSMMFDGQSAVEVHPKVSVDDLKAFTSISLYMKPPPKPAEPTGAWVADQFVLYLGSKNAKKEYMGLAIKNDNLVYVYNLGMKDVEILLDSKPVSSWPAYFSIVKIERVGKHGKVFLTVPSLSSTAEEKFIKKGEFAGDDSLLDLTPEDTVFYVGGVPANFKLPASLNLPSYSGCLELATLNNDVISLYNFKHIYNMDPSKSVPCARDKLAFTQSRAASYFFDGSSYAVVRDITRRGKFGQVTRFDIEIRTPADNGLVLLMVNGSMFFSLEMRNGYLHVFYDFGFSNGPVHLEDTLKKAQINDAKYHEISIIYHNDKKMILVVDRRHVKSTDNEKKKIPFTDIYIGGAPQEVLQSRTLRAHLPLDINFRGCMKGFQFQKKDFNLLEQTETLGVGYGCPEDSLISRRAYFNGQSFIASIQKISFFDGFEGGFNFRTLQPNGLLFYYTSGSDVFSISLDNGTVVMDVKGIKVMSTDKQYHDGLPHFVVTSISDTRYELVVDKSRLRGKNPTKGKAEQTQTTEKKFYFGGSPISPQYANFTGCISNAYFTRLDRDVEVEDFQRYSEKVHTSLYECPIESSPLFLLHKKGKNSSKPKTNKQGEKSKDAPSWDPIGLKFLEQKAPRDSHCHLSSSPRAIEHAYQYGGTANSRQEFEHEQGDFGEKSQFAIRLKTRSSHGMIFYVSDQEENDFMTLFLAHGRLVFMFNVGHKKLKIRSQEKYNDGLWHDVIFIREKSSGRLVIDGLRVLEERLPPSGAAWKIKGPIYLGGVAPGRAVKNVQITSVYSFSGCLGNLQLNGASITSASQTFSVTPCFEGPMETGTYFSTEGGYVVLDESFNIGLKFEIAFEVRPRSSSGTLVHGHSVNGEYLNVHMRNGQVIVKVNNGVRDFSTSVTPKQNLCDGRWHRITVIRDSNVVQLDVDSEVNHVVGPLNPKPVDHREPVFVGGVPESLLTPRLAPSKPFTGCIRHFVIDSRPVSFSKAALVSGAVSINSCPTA
The experiment in a line: Biacore SPR.

Experiment [3] deals with T2, mouse His-laminin-α4. The experiment in a line: ELISA hMCAM-Fc capture blocking assay; antibody pre-incubated with mouse LAMA4-His; blocked partner: captured hMCAM-Fc.
Experiment [4] addresses T3, human LAMA4 G domain (LG1-5) displayed on 293 cells (human, UniProt Q16363 830-1821).
T3 construct: the vector's tags and membrane anchor are not written here; also called LAMA4-displaying human 293 cells; full length
T3 sequence: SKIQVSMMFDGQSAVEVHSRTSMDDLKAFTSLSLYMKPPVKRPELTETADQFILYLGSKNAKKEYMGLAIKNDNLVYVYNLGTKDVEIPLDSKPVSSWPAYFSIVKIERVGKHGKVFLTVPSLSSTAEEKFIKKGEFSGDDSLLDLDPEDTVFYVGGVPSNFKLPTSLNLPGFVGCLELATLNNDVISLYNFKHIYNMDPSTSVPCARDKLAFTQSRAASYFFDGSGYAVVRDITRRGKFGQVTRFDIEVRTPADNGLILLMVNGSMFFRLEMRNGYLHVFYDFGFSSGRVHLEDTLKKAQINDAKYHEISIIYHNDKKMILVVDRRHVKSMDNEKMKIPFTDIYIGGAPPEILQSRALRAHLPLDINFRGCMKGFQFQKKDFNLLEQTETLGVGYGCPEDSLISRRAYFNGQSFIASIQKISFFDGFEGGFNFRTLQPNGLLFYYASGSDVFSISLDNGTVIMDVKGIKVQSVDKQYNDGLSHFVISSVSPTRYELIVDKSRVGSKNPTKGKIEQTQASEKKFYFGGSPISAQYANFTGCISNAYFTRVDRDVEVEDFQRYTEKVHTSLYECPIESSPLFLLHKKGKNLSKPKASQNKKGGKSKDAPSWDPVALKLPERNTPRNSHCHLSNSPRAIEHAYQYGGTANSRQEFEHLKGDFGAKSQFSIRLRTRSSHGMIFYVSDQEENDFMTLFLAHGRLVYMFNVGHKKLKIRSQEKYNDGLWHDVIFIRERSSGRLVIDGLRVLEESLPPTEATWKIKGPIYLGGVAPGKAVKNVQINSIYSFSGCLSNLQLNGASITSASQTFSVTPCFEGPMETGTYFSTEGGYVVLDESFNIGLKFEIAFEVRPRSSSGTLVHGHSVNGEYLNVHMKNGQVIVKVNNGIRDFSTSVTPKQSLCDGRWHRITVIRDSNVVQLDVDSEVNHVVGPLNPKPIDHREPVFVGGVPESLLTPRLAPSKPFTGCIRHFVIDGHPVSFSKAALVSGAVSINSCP
The experiment in a line: LAMA4 pDisplay flow cytometric blocking assay on LAMA4-displaying 293 cells; blocked ligand: 650-conjugated mouse MCAM-Fc.

The target in experiment [5] is T4, recombinant laminin 411 (human, UniProt P07942 22-1786; P11047 34-1609, limits assumed).
T4 construct: also called LAMA4 in complex with its gamma1 and beta1 chains
The experiment in a line: hMCAM.CHO flow cytometric blocking assay; antibody pre-incubated with laminin 411; blocked partner: human MCAM on CHO cells. As to the method:
The monoclonal antibodies against LAMA4 were tested for their ability to block the binding of LAMA4 to its ligand MCAM. IgG control antibody, 1C1, 5Al2, 5B5, 19C12, and 12D3 were pre-incubated with recombinant LAMA4 protein, LAMA4-positive healthy mouse brain tissue, or LAMA4-displaying human 293 cells. […] For the mouse brain tissue blocking assay, antibodies were used at concentrations of 2.5 ug/ml or 0.04 ug/ml.
(§1) Following two washes with FACS buffer (1% FBS in PBS), cells were resuspended with 650-conjugated anti-pan-laminin antibody (1:1000; Novus Biologicals) and incubated for 20 min at 4° C., and washed again. Cells were analyzed for pan-laminin reactivity by flow cytometry using standard procedures.

Experiment [6] has as its target T5, human LAMA4 LG4-5 modules displayed on 293 cells (human, UniProt Q16363 1453-1821).
T5 construct: pDisplay construct on 293 cells; vector tags and anchor not written here
T5 sequence: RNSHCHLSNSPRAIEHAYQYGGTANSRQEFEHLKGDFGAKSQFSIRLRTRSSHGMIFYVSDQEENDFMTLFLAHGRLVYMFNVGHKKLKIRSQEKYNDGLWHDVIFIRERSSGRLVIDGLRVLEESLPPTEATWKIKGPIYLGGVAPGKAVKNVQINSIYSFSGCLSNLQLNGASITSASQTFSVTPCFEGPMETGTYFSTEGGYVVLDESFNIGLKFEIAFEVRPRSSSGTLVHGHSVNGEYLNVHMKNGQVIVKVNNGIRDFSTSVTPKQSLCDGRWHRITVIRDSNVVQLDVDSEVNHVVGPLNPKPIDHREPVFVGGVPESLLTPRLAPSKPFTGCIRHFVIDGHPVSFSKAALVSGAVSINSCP
The experiment in a line: flow cytometry on 293 cells displaying LAMA4 G-domain variants, anti-human-650 secondary antibody; MFI. As to the method:
The 19C12 variants chimeric 19C12, H1+chiL, and H2+chiL, and buffer alone were tested for their ability to block the binding of LAMA4 to its ligand MCAM (as shown in FIG. 11) and to bind LAMA4-displaying cells (full length, LG1-3, LG4-5, or untransfected control) (as shown in FIG. 12). […] To test LAMA4 binding capacity, serially diluted antibodies were pre-incubated with LAMA4-displaying human 293 cells, followed by anti-human-650 secondary antibody incubation. Fluorescent signal was assessed via flow cytometric analyses and plotted as mean fluorescence intensity (MFI).

Experiment [7] deals with T4, recombinant laminin 411. The experiment in a line: flow cytometric blocking assay; antibody pre-incubated with 650-labeled laminin 411; blocked partner: human MCAM on CHO cells; MFI. As to the method: The 19C12 variants chimeric 19C12, H2L3, H2L4, H2L6, H3L6, and isotype control were tested for their ability to block the binding of LAMA4 to its ligand MCAM (FIG. 15) and to bind LAMA4-displaying cells (FIG. 16). To test LAMA4 binding capacity, serially diluted antibodies were pre-incubated with LAMA4-displaying human 293 cells, followed by anti-human-650 secondary antibody incubation. […] Fluorescent signal was assessed via flow cytometric analyses and plotted as mean fluorescence intensity (MFI). All 19C12 variants retained their MCAM blocking and LAMA4 binding activity when compared with chimeric 19C12.
as §1

T4 sequence (P07942 22-1786 limits assumed, chain 2 of 2): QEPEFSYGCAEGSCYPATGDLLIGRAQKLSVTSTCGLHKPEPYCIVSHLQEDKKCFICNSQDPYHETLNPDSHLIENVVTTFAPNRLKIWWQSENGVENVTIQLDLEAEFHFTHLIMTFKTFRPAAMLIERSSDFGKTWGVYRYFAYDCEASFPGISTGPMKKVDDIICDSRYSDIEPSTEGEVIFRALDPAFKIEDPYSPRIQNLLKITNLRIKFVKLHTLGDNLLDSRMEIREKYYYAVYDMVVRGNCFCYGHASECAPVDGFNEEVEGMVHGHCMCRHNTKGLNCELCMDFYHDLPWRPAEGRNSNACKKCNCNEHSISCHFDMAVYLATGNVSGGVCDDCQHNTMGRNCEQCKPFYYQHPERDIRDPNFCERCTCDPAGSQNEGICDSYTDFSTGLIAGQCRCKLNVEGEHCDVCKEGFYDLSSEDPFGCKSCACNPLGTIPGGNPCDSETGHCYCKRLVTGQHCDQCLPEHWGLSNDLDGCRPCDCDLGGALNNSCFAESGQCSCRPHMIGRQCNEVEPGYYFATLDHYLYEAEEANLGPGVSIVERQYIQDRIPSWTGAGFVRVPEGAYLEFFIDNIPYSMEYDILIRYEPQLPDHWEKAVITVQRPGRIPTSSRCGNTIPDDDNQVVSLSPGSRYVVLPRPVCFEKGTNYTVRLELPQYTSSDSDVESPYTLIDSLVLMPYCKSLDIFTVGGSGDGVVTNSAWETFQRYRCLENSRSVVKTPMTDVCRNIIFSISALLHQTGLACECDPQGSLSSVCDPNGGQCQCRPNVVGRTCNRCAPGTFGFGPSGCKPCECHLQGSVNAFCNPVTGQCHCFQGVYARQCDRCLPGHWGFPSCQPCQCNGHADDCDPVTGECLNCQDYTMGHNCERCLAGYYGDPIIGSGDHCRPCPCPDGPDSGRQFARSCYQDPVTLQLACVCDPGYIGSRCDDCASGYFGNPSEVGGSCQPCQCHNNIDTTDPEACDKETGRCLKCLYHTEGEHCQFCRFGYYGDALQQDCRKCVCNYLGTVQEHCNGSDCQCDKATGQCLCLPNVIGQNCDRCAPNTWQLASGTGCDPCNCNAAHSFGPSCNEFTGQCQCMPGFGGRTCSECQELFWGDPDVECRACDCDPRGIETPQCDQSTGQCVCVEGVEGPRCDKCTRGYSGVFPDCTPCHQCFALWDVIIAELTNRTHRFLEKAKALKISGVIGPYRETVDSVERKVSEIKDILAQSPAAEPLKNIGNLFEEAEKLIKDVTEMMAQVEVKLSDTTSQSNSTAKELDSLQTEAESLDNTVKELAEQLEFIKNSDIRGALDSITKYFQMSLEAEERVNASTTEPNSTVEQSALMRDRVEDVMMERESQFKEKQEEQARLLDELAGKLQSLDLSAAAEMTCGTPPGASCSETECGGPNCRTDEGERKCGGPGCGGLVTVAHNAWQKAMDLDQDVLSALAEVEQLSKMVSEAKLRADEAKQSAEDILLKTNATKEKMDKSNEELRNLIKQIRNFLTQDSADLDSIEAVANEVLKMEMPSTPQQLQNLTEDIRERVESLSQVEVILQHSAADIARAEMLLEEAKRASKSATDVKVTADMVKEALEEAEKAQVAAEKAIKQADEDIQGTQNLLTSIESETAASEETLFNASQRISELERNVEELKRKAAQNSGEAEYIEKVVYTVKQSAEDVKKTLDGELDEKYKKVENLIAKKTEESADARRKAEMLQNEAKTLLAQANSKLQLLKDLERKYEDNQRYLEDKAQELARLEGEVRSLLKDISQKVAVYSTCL
T4 sequence (P11047 34-1609 limits assumed, chain 3 of 2): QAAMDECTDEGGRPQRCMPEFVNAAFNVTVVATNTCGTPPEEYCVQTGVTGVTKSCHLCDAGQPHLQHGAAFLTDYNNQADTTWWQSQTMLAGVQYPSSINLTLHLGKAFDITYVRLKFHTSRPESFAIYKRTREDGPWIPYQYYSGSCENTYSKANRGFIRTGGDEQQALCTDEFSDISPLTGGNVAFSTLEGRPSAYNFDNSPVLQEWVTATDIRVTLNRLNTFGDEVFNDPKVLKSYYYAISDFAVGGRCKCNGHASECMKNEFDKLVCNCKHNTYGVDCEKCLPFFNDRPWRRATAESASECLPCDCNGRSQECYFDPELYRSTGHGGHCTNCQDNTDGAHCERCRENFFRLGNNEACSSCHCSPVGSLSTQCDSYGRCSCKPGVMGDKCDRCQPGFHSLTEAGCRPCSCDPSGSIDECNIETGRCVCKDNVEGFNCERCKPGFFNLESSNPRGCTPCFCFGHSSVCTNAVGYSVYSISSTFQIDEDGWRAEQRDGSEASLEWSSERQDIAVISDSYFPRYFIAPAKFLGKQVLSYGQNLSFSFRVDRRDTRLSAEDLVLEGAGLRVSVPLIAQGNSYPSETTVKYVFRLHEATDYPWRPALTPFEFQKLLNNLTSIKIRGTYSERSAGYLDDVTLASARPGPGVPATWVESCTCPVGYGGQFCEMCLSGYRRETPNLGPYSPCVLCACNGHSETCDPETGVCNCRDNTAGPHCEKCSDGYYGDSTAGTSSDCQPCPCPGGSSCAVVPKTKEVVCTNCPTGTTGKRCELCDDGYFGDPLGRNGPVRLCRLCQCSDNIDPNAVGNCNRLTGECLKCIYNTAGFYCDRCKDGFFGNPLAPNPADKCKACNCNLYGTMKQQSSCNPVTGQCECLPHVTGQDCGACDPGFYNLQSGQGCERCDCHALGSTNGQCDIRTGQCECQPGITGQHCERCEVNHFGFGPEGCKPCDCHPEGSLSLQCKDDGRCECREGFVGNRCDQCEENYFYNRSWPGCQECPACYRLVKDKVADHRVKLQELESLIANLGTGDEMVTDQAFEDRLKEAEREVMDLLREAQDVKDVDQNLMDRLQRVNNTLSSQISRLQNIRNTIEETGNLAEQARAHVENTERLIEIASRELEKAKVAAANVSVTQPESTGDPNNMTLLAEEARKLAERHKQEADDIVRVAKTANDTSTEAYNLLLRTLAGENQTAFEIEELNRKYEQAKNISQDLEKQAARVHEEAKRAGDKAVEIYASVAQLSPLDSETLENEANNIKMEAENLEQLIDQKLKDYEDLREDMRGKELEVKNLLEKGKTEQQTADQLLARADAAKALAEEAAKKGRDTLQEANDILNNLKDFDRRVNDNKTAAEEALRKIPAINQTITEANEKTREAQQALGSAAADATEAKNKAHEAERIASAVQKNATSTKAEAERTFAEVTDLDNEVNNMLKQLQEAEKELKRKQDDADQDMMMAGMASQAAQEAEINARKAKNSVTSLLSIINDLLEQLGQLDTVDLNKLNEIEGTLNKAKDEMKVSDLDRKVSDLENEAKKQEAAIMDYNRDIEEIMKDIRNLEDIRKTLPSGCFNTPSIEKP

B1: mouse monoclonal antibody 5A12 (antibody, V domains shown)
VH: QVQLQQPGAELVKPGASVKLSCKASGYTFTSYWMHWVKQRPGRGLEWIGRIDPNSGGTKHNEKFKSKATLTVDKPSSTAYMQLSSLTSEDSAVYYCAGSPSYYDYALHYAMDYWGQGTSVTVSS
VL: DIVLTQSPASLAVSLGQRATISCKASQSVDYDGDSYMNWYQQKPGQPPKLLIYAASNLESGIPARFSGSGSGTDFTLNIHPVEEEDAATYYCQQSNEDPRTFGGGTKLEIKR
notes: version 1 is written here; also called 5Al2
As to B1, the Kd turned out to be 10.9 nM in experiment [1] and 10.3 nM in experiment [2]. The koff is 0.00791 s⁻¹ in experiment [1] and 0.00815 s⁻¹ in experiment [2]. Also, the kon in experiment [1] amounted to 723000 M⁻¹ s⁻¹; in experiment [2] it was 795000 M⁻¹ s⁻¹. The “IC50 (read off the curve)” value in experiment [3] is roughly 0.2 µg/mL; in experiment [4], roughly 0.1 µg/mL; in experiment [5], roughly 0.06 µg/mL.

B2: chimeric 19C12 antibody (antibody, V domains shown)
VH: QVQLQQSGAELVKPGASVKISCKASGYAFSTYWMNWVKQRPGEGLEWIGQIYPGDGDTNYNGKFKGKATLTADKSSSTAYMQLSSLTSEDSAVYFCARSDGYYDYWGQGTTLTVSS
VL: NIVLTQSPASLAVSLGQRATISCRASESVDSYGTSFMHWYQQKPGQPPKLLICLASSLESGVPARFSGSGSRTDFTLTIDPVEADDAATYYCQQNNEDPPTFGAGTKLELKR
notes: Mouse 19C12 variable regions with human constant regions (captured by anti-human Fc, detected by anti-human secondary); also called chi19C12; 19C12 chi
With B2, in experiment [6], the binding result is on record as “no binding (tested: 5 ug/ml)”. In experiment [7], the “IC50 (read off the curve)” value was roughly 0.7 µg/mL.
